Common to all, as to assay: purified protein
Substrate in data set [1]: O=C(O)c1cc(/N=N/c2ccc(S(=O)(=O)Nc3ccccn3)cc2)ccc1O
Conditions: 40 μM NADH, 50 mM MOPS pH 7.2, 22 °C.

Substrate in data set [2]: CCN(CC)c1ccc(N=Nc2ccccc2C(=O)O)cc1
In kind it is biochemical, Anaerotignum lactatifermentans. Conditions: 400 μM NADH, 50 mM MOPS pH 7.2, 22 °C.

Substrate in data set [3]: Nc1ccc(N=Nc2ccccc2)c(N)n1
Type of data set: biochemical, Anaerotignum lactatifermentans. Conditions: 400 μM NADH, 50 mM MOPS pH 7.2, 22 °C.

Substrate in data set [4]: CN(C)c1ccc(N=Nc2ccccc2C(=O)O)cc1
Type of data set: biochemical, Anaerotignum lactatifermentans. Conditions: 400 μM NADH, 50 mM MOPS pH 7.2, 22 °C.

Experimental findings from PMC11295148 are described below.

B1: AlAzoR (Anaerotignum lactatifermentans DSM 14214) (protein)
chain: MKKVLFVNCCIRREGSRTQKLADHFLEGLRKKEGYEIEELCLMDESLSYFTDGFFEQRERLLADKQFDHPRFRYAHQFAEADKIVIAAPFWDLSFPALLKVYIENLCVEGITFGCNETGCFGTCKADQLIYLTTRGGFYNDNPMEMGSRYIWAMCDFFGIPRYDCVAGDGLDTGVRPVEEILEDAKAEIDRLLAEF
As usually defined, the Km is the substrate concentration at which the rate is half of its maximum. A word on the kcat: it is the maximal rate divided by the concentration of active sites. Broadly, the kcat/Km is the turnover number divided by the Michaelis constant. As for B1, the Km amounted to 8 ± 1 µM in data set [1], 30. ± 2 μM in data set [2], 23 ± 3 µM in data set [3] and 17 ± 3 µM in data set [4]. Also, the kcat in data set [1] stood at 0.05 s⁻¹; in data set [2], 0.78 ± 0.02 s⁻¹; in data set [3], 0.138 ± 0.008 s⁻¹; in data set [4] it was 0.49 ± 0.03 s⁻¹. In addition, the kcat/Km in data set [1] stood at 6100 M⁻¹ s⁻¹; in data set [2], 26000 ± 2000 M⁻¹ s⁻¹; in data set [3] it was 6000 ± 700 M⁻¹ s⁻¹; in data set [4], 28000 ± 4000 M⁻¹ s⁻¹.
